± gives the uncertainty stated by the source.

The data set in a line: amyloid nucleation score (Sup35N fusion, yeast selection) (log enrichment); library NNK2; higher = more nucleation; inactive = no reads after selection. The essentials:
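The nucleation score, computed with DiMSum, is the log enrichment of output over input reads, centred on the mode score of non-aggregating sequences. Sequences with under 100 input reads were dropped. Reads were generated by Illumina sequencing of plasmid inserts from psi-negative yeast with Sup35N fused to peptides of 20 random codons, induced with 100 μM copper sulfate for 24 hours and grown 7 days at 30°C on medium lacking adenine and uracil.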
CLSMFTVWSLAFASLSVTMR registered an amyloid nucleation score of -0.034 ± 0.45.
With CLSRLNVLWYSPFKHFILEC, the amyloid nucleation score is -0.267 ± 0.45.
The substance CLTYYTCLTWKMPCGIRHQG registered an amyloid nucleation score of 0.428 ± 0.22.
On to CLWSTN, for which the amyloid nucleation score amounted to 0.801 ± 0.58.
The substance CLYFFLSYRSCCINVFLGFC showed an amyloid nucleation score of -0.326 ± 1.
For the substance CMAIDLPVHYS, the amyloid nucleation score worked out at 0.005 ± 0.55.
Substance CMKKWFS had an amyloid nucleation score of 3.85 ± 0.075.
CMREATFRLTSKFLSSFGL returned an amyloid nucleation score of 4.04 ± 0.086.
In turn, CMVNPVPWDCLVRKFMFVGA had an amyloid nucleation score of -0.421 ± 0.35.
Consider CMWLLMTHPHKVTIMQ, for which the amyloid nucleation score was determined as 7.262 ± 0.061.
For the substance CNFLFYPFWCWLSICYFRSM, the amyloid nucleation score turned out to be 4.55 ± 0.085.
With CNPIGIMHN the entry was “inactive”; with CNPVAV, 0.8 ± 0.66.
Regarding CNVASFELVLRD, the amyloid nucleation score entry was “inactive”.
Regarding CNYVQIMLS, the amyloid nucleation score stood at 2.81 ± 0.056.
On to CPHGCIQTARYQQ, for which the amyloid nucleation score amounted to 1.19 ± 0.42.
For the substance CPISCTYMEYTSWSSSRC, the amyloid nucleation score was 1.18 ± 0.44.
CPLMNLYRNVFYVWKLNFLP: the amyloid nucleation score entry is “inactive”.
Substance CPLRLTRGLKCRVYINWEHQ had an amyloid nucleation score of 0.354 ± 0.48.
In turn, CPRVSVSSVLMGKLFL displayed an amyloid nucleation score of -1.15 ± 0.54.
CPSYSTMSTGFVERVLPTGR returned an amyloid nucleation score of 1.53 ± 0.39.
With CPVLG the figure was 1.87 ± 0.32.
CQIVGRHIGVRMCDDRVYRA showed an amyloid nucleation score of 0.762 ± 0.6.
Consider CQLFMQSSRCIRRRFATSAC, for which the amyloid nucleation score was -0.295 ± 0.76.
Take CQRQRLNFY: the amyloid nucleation score is -0.626 ± 1.1.
For the substance CQSLIFASTYHRNSSFGKNV, the amyloid nucleation score turned out to be 2.92 ± 0.16.
With CQWSVGRLRSLRAESVVQFD the figure was 0.104 ± 0.35; with CRAFVWQ, -0.889 ± 0.55; with CRCLPKKGFHVLTVSRFRAS, “inactive”.
Regarding CRGDRFSRSST, the amyloid nucleation score was -0.217 ± 0.79.
CRIFDTVSMLNSFYHGH: the amyloid nucleation score result was “inactive”.
Take CRISVIFLYFSFFY: the amyloid nucleation score result is “inactive”.
On to CRIVKRVRAADRRMWIMCLG, for which the amyloid nucleation score was -0.256 ± 0.37.
Take CRLRVDVGECDRGLYALRVW: the amyloid nucleation score worked out at 1.21 ± 0.48.
For the substance CRMYRSRCNCMCDRVVEMWG, the amyloid nucleation score was -0.407 ± 0.4.
For CRNRVDECSIWRD, the amyloid nucleation score was -0.046 ± 1.
In the case of CRPGRLYVQIIFISMIRDNR it was -0.513 ± 0.48.
In turn, CRRSNFNYQGVLGYWHRFAG had an amyloid nucleation score of -0.755 ± 1.1.
CRSKASSSIRIPT yielded an amyloid nucleation score of 0.586 ± 0.81.
As for CRTRL, the amyloid nucleation score worked out at 0.505 ± 0.39.
With CRVRVTFG, the amyloid nucleation score was -0.481 ± 1.1.
With CSAITGY, the amyloid nucleation score was 0.564 ± 0.23.
In turn, CSCFWCRRRKNYKFLGGCGS returned an amyloid nucleation score of -1.25 ± 1.1.
CSESFGCRTPPSLNMLVCN gave an amyloid nucleation score of -0.729 ± 1.1.
In turn, CSGSLHERQYVRYDEVRRVG came in with an amyloid nucleation score of -0.031 ± 0.55.
Substance CSIPCCVGHTLSLGRQFVFV returned an amyloid nucleation score of 0.13 ± 0.43.
Take CSKLFSRGPGLAFFQFFI: the amyloid nucleation score entry is “inactive”.
Take CSLAFVHRAIFSMSLLHSET: the amyloid nucleation score amounted to 0.136 ± 0.4.
With CSLPCVTNWCRRRNMVSQPV the figure was -1.11 ± 1.1; with CSMMEPTMY, 0.269 ± 0.41.
For CSMMNLKSFLADCSIPAFTG, the amyloid nucleation score was -0.962 ± 0.64.
As for CSPVLKSSFNALARKRMLAR, the amyloid nucleation score is 1.29 ± 0.35.
As to CSQVALLNKLFLPG, the amyloid nucleation score is -1.14 ± 0.38.
Substance CSVNNSSLCIVVVAWFCGLD showed an amyloid nucleation score of 0.711 ± 0.45.
With CSVRSSAIYIRSCHHGWFYC the figure was -1.19 ± 1.1; with CSYPNTLNCELMGILCYVGN, 6.47 ± 0.024.
With CSYSFDLTANICPISLNVVC, the amyloid nucleation score was found to be 5.001 ± 0.043.
On to CSYVAGETSLERSHCILGWS, for which the amyloid nucleation score is 0.161 ± 0.34.
The substance CTRSFVTQSDEDSPIGSDR registered an amyloid nucleation score of -1.39 ± 0.38.
In turn, CTRVLW gave an amyloid nucleation score of -0.201 ± 0.32.
As for CTTLLALHMWISCVIGWSR, the amyloid nucleation score came to 0.172 ± 0.39.
For the substance CTTYPAFLSSGNPNFIMRFL, the amyloid nucleation score is -0.148 ± 0.51.
Substance CVCLD registered an amyloid nucleation score of 0.1 ± 0.33.
On to CVFNTFMNDKIIGRLWPTDW, for which the amyloid nucleation score was found to be 2.91 ± 0.15.
For CVGIFDNDICVEFMMALRLD, the amyloid nucleation score was -1.05 ± 0.64.
Turning to CVKQWRTIIVTLYLGTLPK, the amyloid nucleation score came out at 4.21 ± 0.059.
With CVLDLNVMDGGLL the figure was -1.26 ± 0.38.
With CVLDNGGTYNFRLRRMDHLI, the amyloid nucleation score is -0.707 ± 0.79.
For CVLVFIVNKTYA, the amyloid nucleation score was determined as 4.13 ± 0.06.
For the substance CVLYCVGFN, the amyloid nucleation score was 6.483 ± 0.042.
In the case of CVMALVYACRAAHTRPMAYS, the amyloid nucleation score entry was “inactive”.
CVMLMCRGDV: the amyloid nucleation score was 3.87 ± 0.091.
In the case of CVMMSQAFF, the amyloid nucleation score was 5.22 ± 0.084.
The substance CVSADPFCPIEQFNVMILAL displayed an amyloid nucleation score of -0.663 ± 0.42.
With CVSEDDCLDYPKV, the amyloid nucleation score stood at 2.29 ± 0.13.
CVVDLDPCNGDAGLSSYTIS showed an amyloid nucleation score of 0.594 ± 0.13.
CWLAMN yielded an amyloid nucleation score of -0.166 ± 0.8.
With CWNKEGRFTRVTMEHASRRA the figure was 0.973 ± 0.48; with CWRVNRFYVQSSYMGFVWSV, -0.73 ± 1.1.
On to CYHFCYYVLSLVWGQNPVIK, for which the amyloid nucleation score came to 0.108 ± 0.65.
As for CYSTLGLSG, the amyloid nucleation score is 0.516 ± 0.81.
Substance DAEIMMCYCKFSGFGSITWR yielded an amyloid nucleation score of 0.143 ± 0.5.
DAKPVCIDGLFI registered an amyloid nucleation score of -0.839 ± 0.56.
For the substance DAVMVWVGDV, the amyloid nucleation score is 0.179 ± 0.17.
With DAVRQGTL the figure was 0.102 ± 1.1.
Consider DAWFVINHHPIEYLSLRVWR, for which the amyloid nucleation score stood at 0.98 ± 0.27.
In the case of DAWKLNTDIYSANRYFIDLV, the amyloid nucleation score is -0.651 ± 0.27.
As to DAWSCRRLF, the amyloid nucleation score result was “inactive”.
With DCECGLNSWKKVT the entry was “inactive”.
As for DCLFLKVSPLVHQYYWIGFD, the amyloid nucleation score amounted to 0.306 ± 0.8.
In turn, DCLNYFTTLIKLVSLVCWNG had an amyloid nucleation score of -0.571 ± 0.79.
As for DCLYRLSIKSSKAMVSHECR, the amyloid nucleation score was -0.142 ± 0.79.
In the case of DCTLAVLFYKTEFITPRAQW it was 2.28 ± 0.14.
DDCCSVNAMHSANCMMVVR: the amyloid nucleation score is 0.09 ± 1.
In the case of DDDNRNNLLWAMNADLGLRC it was 2.32 ± 0.091; in that of DDDRPDEAYEYDVSGF, -1.03 ± 0.54; in that of DDFGCLYFYILYS, “inactive”.
The substance DDNVLYCYSYVVHESLSAAQ had an amyloid nucleation score of 0.354 ± 0.3.
As to DDSFML, the amyloid nucleation score was -0.134 ± 1.1.
On to DEIVSERDIVSSNRLCGSIM, for which the amyloid nucleation score is -0.561 ± 1.1.
For DFCSLATYGKRGFCDMYYYV, the amyloid nucleation score amounted to 0.343 ± 0.35.
Take DFDSQRSLKSSDRRFVTFTY: the amyloid nucleation score is -0.869 ± 0.55.
DFGRWSTSGSVPCSGATCAV: the amyloid nucleation score is 2.43 ± 0.2.
DFILGYVDS: the amyloid nucleation score was -0.65 ± 1.
Regarding DFLWTFVGNFLE, the amyloid nucleation score was -1.43 ± 0.78.
With DFNIIECSPGRGVHHDDWEP the entry was “inactive”; with DFSTLAPLKLVMHI, -0.267 ± 0.54.
Take DFVRY: the amyloid nucleation score was -0.484 ± 0.63.
DFYVSVPLRNCFSMSFIKWV showed an amyloid nucleation score of -0.766 ± 0.48.
Take DGFVVASISWGSNFLVFFIY: the amyloid nucleation score result was “inactive”.
Regarding DGMSRSVRKNCEAGCRRSFG, the amyloid nucleation score was 4.58 ± 0.048.
DGNWL gave an amyloid nucleation score of -0.385 ± 0.76.
The substance DGRADFYSCVCLYYSWNGY showed an amyloid nucleation score of 3.62 ± 0.037.
For DGRIVYEPSKSARFWKVKCL, the amyloid nucleation score is -0.335 ± 0.79.
The substance DGSHYFIVRDPVNSCLSSWV returned an amyloid nucleation score of -0.668 ± 0.36.
DGVCKFQELMSFPGKLYS: the amyloid nucleation score was -0.447 ± 0.5.
The substance DGVNAFNR yielded an amyloid nucleation score of 0.203 ± 0.2.
In turn, DHLYMYWGAQ registered an amyloid nucleation score of 1.02 ± 0.37.
In the case of DHRLYQSFKALRVPSVVLRG it was -0.766 ± 0.79; in that of DHRRCDSMRTDC, 0.098 ± 1.
The substance DIAKLLCYILCFNGKSRRWG returned an amyloid nucleation score of 0.127 ± 0.55.
As to DIARDLVWGLRSNAGAQLGN, the amyloid nucleation score is 0.54 ± 0.44.
The substance DICNWHLYDNCLSICSGYR yielded an amyloid nucleation score of 0.951 ± 0.81.
On to DIGSMYEMLCRVVTIVLPRS, for which the amyloid nucleation score is -0.723 ± 1.1.
For the substance DIIAPEKNFIIYY, the amyloid nucleation score result was “inactive”.
As to DIIVVQCIVSVMCTMRASRS, the amyloid nucleation score stood at 5.897 ± 0.051.
In the case of DIRMLERTNLIPYNKQVMGM, the amyloid nucleation score was determined as 0.163 ± 0.29.
With DISELDVCFL the figure was -0.287 ± 0.33.
Regarding DITYEYTTWGFLRRQAIRRP, the amyloid nucleation score stood at 3.63 ± 0.089.
The substance DITYQHDGVIE displayed an amyloid nucleation score of -0.789 ± 0.32.
In turn, DIVIYWV came in with an amyloid nucleation score of -0.139 ± 0.63.
For DIVQIWCWFRGC, the amyloid nucleation score was determined as 10.25 ± 0.029.
Turning to DKCDMTSTIVSLLVSTPKWS, the amyloid nucleation score is -0.142 ± 0.34.
Turning to DKICNYVVGGEVYFSMNHYW, the amyloid nucleation score came out at 8.327 ± 0.047.
Consider DKIRTSKAISQIWLLPIYFE, for which the amyloid nucleation score came out at 0.491 ± 0.57.
For the substance DKPLQWHGCVRKKSTRGRGW, the amyloid nucleation score came to 0.927 ± 0.45.
DKREQRLRQSQILMCGDGGF: the amyloid nucleation score came to 0.157 ± 0.76.
In the case of DKRIGRVCHSLKIVWCTIML it was -0.089 ± 0.41.
As to DKRLCLMVCNLLVYYMPF, the amyloid nucleation score was -0.952 ± 0.63.
The substance DLAELISVKYLVTVSLWAGS showed an amyloid nucleation score of 0.621 ± 0.57.
Regarding DLARPDFKLIYSYGSNSPGS, the amyloid nucleation score is -1.38 ± 0.64.

These data come from the supplement of paper PMC12042874.
